Test results taken from IntAct's records for PubMed 19474792.

B1: DYRK-family kinase pom1 (Schizosaccharomyces pombe (strain ATCC 38366 / 972)), Q09690 (parent)
chain: MGYLQSQKAVSLGDENTDALFKLHTSNRKSANMFGIKSELLNPSELSAVGSYSNDICPNRQSSSSTAADTSPSTNASNTNISFPEQEHKDELFMNVEPKGVGSSMDNHAITIHHSTGNGLLRSSFDHDYRQKNSPRNSIHRLSNISIGNNPIDFESSQQNNPSSLNTSSHHRTSSISNSKSFGTSLSYYNRSSKPSDWNQQNNGGHLSGVISITQDVSSVPLQSSVFSSGNHAYHASMAPKRSGSWRHTNFHSTSHPRAASIGNKSGIPPVPTIPPNIGHSTDHQHPKANISGSLTKSSSESKNLSTIQSPLKTSNSFFKELSPHSQITLSNVKNNHSHVGSQTKSHSFATPSVFDNNKPVSSDNHNNTTTSSQVHPDSRNPDPKAAPKAVSQKTNVDGHRNHEAKHGNTVQNESKSQKSSNKEGRSSRGGFFSRLSFSRSSSRMKKGSKAKHEDAPDVPAIPHAYIADSSTKSSYRNGKKTPTRTKSRMQQFINWFKPSKERSSNGNSDSASPPPVPRLSITRSQVSREPEKPEEIPSVPPLPSNFKDKGHVPQQRSVSYTPKRSSDTSESLQPSLSFASSNVLSEPFDRKVADLAMKAINSKRINKLLDDAKVMQSLLDRACIITPVRNTEVQLINTAPLTEYEQDEINNYDNIYFTGLRNVDKRRSADENTSSNFGFDDERGDYKVVLGDHIAYRYEVVDFLGKGSFGQVLRCIDYETGKLVALKIIRNKKRFHMQALVETKILQKIREWDPLDEYCMVQYTDHFYFRDHLCVATELLGKNLYELIKSNGFKGLPIVVIKSITRQLIQCLTLLNEKHVIHCDLKPENILLCHPFKSQVKVIDFGSSCFEGECVYTYIQSRFYRSPEVILGMGYGTPIDVWSLGCIIAEMYTGFPLFPGENEQEQLACIMEIFGPPDHSLIDKCSRKKVFFDSSGKPRPFVSSKGVSRRPFSKSLHQVLQCKDVSFLSFISDCLKWDPDERMTPQQAAQHDFLTGKQDVRRPNTAPARQKFARPPNIETAPIPRPLPNLPMEYNDHTLPSPKEPSNQASNLVRSSDKFPNLLTNLDYSIISDNGFLRKPVEKSRP
partner: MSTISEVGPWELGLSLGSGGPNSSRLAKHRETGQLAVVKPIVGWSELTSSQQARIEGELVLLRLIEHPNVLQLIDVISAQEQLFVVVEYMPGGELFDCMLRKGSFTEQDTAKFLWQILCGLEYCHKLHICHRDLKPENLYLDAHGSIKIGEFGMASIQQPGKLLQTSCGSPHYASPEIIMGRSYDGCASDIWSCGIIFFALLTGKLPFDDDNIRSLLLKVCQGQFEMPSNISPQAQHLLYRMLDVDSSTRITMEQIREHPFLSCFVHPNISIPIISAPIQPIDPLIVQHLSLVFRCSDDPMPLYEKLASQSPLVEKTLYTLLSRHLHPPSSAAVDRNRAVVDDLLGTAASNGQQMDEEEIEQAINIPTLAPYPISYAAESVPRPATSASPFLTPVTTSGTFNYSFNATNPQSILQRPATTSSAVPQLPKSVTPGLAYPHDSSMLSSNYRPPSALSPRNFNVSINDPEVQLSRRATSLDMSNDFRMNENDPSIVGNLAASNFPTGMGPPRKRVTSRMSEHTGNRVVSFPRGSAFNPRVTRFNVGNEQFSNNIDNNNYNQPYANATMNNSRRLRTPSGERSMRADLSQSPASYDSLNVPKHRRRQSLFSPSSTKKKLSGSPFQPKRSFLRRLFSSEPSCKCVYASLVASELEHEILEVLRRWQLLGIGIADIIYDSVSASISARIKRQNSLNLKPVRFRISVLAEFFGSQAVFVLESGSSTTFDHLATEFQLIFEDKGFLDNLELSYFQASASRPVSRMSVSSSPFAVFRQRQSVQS

Variants of: B1
Settings: with cdr2_schpo cdr2, P87050

effect of a mutation on the interaction	Variant
disrupting interaction	K728R
